Measurements as given in patent US20240376166A1 (BOSTON MEDICAL CENTER, published 2024).

Target: the molecule itself
Assay: native gel of lysates from non-stressed cells (self-association; cells also hold endogenous NPM); FIG. 5B

B1: flag-tagged NPM normal mimic (T86A-S88A-T95A-T234E-S242E) (other)
chain: MEDSMDMDMSPLRPQNYLFGCELKADKDYHFKVDNDENEHQLSLRTVSLGAGAKDELHIVEAEAMNYEGSPIKVTLATLKMSVQPAVALGGFEIAPPVVLRLKCGSGPVHISGQHLVAVEEDAESEDEEEEDVKLLSISGKRSAPGGGSKVPQKKVKLAADEDDDDDDEEDDDEDDDDDDFDDEEAEEKAPVKKSIRDTPAKNAQKSNQNGKDSKPSSTPRSKGQESFKKQEKEPKTPKGPESVEDIKAKMQASIEKGGSLPKVEAKFINYVKNCFRMTDQEAIQDLWQWRKSL
notes: Lentiviral expression in primary PTEC; also called normal mimic NPM; NrNPM; not shown: amino-terminal flag tag
  binding result: binds
